Measured values reported in FireProtDB (doi:10.1074/jbc.271.12.6832).
Where “and” joins values, the source holds several entries; their conditions need not be identical. Equal entries are not always repeated.

Settings: Streptococcus pneumoniae serotype 4 (strain ATCC BAA-334 / TIGR4); pH 6.9; Thermal; DSC; phosphate 20 mM; transition: 4; reversible: no; whole UniProt chain shown

B1: Autolysin wild type, P06653 (protein)
chain: MEINVSKLRTDLPQVGVQPYRQVHAHSTGNPHSTVQNEADYHWRKDPELGFFSHIVGNGCIMQVGPVDNGAWDVGGGWNAETYAAVELIESHSTKEEFMTDYRLYIELLRNLADEAGLPKTLDTGSLAGIKTHEYCTNNQPNNHSDHVDPYPYLAKWGISREQFKHDIENGLTIETGWQKNDTGYWYVHSDGSYPKDKFEKINGTWYYFDSSGYMLADRWRKHTDGNWYWFDNSGEMATGWKKIADKWYYFNEEGAMKTGWVKYKDTWYYLDAKEGAMVSNAFIQSADGTGWYYLKPDGTLADKPEFTVEPDGLITVK
  unfolding enthalpy (van 't Hoff): 50 kcal/mol and 71 kcal/mol and 95 kcal/mol
